{"source": "patent US20240117018A1", "assay_in_all_cases": "cell-based or functional assay", "key": {"[1]": {"target": "Env of HIV-1 pseudovirus 3365.v2.c2 (HIV-1)"}, "[2]": {"target": "Env of HIV-1 pseudovirus 3415.v1.c1 (HIV-1)"}, "[3]": {"target": "Du422.1 Env pseudovirus (HIV-1)"}, "[4]": {"target": "T257-31 Env pseudovirus (HIV-1)"}, "[5]": {"target": "CNE21 Env pseudovirus (HIV-1)"}, "[6]": {"target": "WEAU_d15_410_787 Env pseudovirus (HIV-1)"}, "[7]": {"target": "SC422661.8 Env pseudovirus (HIV-1)"}, "[8]": {"target": "ZM109F.PB4 Env pseudovirus (HIV-1)"}, "[9]": {"target": "CAP45.2.00.G3 Env pseudovirus (HIV-1)"}, "[10]": {"target": "CNE52 Env pseudovirus (HIV-1)"}, "[11]": {"target": "MS208.A1 Env pseudovirus (HIV-1)"}, "[12]": {"target": "0260.v5.c36 Env pseudovirus (HIV-1)"}, "[13]": {"target": "CNE53 Env pseudovirus (HIV-1)"}, "[14]": {"target": "Q23.17 Env pseudovirus (HIV-1)"}, "[15]": {"target": "1054_07_TC4_1499 Env pseudovirus (HIV-1)"}, "[16]": {"target": "ZM247v1(Rev-) Env pseudovirus (HIV-1)"}, "[17]": {"target": "246F C1G Env pseudovirus (HIV-1)"}, "[18]": {"target": "249M B10 Env pseudovirus (HIV-1)"}, "[19]": {"target": "Q769.d22 Env pseudovirus (HIV-1)"}, "[20]": {"target": "CAP210.2.00.E8 Env pseudovirus (HIV-1)"}, "[21]": {"target": "Ce704809221_1B3 Env pseudovirus (HIV-1)"}, "[22]": {"target": "ZM249M.PL1 Env pseudovirus (HIV-1)"}, "[23]": {"target": "Ce2060_G9 Env pseudovirus (HIV-1)"}, "[24]": {"target": "QH0692.42 Env pseudovirus (HIV-1)"}, "[25]": {"target": "CNE30 Env pseudovirus (HIV-1)"}, "[26]": {"target": "62357_14_D3_4589 Env pseudovirus (HIV-1)"}, "[27]": {"target": "CNE58 Env pseudovirus (HIV-1)"}, "[28]": {"target": "1006_11_C3_1601 Env pseudovirus (HIV-1)"}, "[29]": {"target": "6244_13_B5_4576 Env pseudovirus (HIV-1)"}, "[30]": {"target": "ZM214M.PL15 Env pseudovirus (HIV-1)"}, "[31]": {"target": "CNE20 Env pseudovirus (HIV-1)"}, "[32]": {"target": "6240_08_TA5_4622 Env pseudovirus (HIV-1)"}, "[33]": {"target": "HIV-1 Env pseudovirus 3365.v2.c2 (HIV-1)"}, "[34]": {"target": "HIV-1 Env pseudovirus 928-28 (HIV-1)"}, "[35]": {"target": "HIV-1 Env pseudovirus T257-31 (HIV-1)"}, "[36]": {"target": "HIV-1 Env pseudovirus CNE8 (HIV-1)"}}, "data": [{"substance": "10-1074 (antibody)", "values": [{"measurement": "IC50", "setting": "[1]", "value": 0.131, "unit": "µg/mL"}, {"measurement": "IC80", "setting": "[1]", "value": 0.45, "unit": "µg/mL"}, {"measurement": "IC50", "setting": "[2]", "value": "> 50", "unit": "µg/mL"}, {"measurement": "IC80", "setting": "[2]", "value": "> 50", "unit": "µg/mL"}]}, {"substance": "PGT121 (antibody)", "values": [{"measurement": "IC50", "setting": "[3]", "value": 0.039, "unit": "µg/mL"}, {"measurement": "IC80", "setting": "[3]", "value": 0.143, "unit": "µg/mL"}, {"measurement": "IC50", "setting": "[4]", "value": "> 50", "unit": "µg/mL"}, {"measurement": "IC80", "setting": "[4]", "value": "> 50", "unit": "µg/mL"}, {"measurement": "IC50", "setting": "[5]", "value": 0.007, "unit": "µg/mL"}, {"measurement": "IC80", "setting": "[5]", "value": 0.035, "unit": "µg/mL"}, {"measurement": "IC50", "setting": "[6]", "value": 0.026, "unit": "µg/mL"}, {"measurement": "IC80", "setting": "[6]", "value": 0.077, "unit": "µg/mL"}, {"measurement": "IC50", "setting": "[7]", "value": 0.038, "unit": "µg/mL"}, {"measurement": "IC80", "setting": "[7]", "value": 0.177, "unit": "µg/mL"}, {"measurement": "IC50", "setting": "[8]", "value": 8.64, "unit": "µg/mL"}, {"measurement": "IC80", "setting": "[8]", "value": "> 50", "unit": "µg/mL"}, {"measurement": "IC50", "setting": "[9]", "value": 1.63, "unit": "µg/mL"}, {"measurement": "IC80", "setting": "[9]", "value": "> 50", "unit": "µg/mL"}, {"measurement": "IC50", "setting": "[10]", "value": 2.04, "unit": "µg/mL"}, {"measurement": "IC80", "setting": "[10]", "value": 18.9, "unit": "µg/mL"}, {"measurement": "IC50", "setting": "[11]", "value": "> 50", "unit": "µg/mL"}, {"measurement": "IC80", "setting": "[11]", "value": "> 50", "unit": "µg/mL"}, {"measurement": "IC50", "setting": "[12]", "value": 0.053, "unit": "µg/mL"}, {"measurement": "IC80", "setting": "[12]", "value": 0.197, "unit": "µg/mL"}, {"measurement": "IC50", "setting": "[13]", "value": 0.007, "unit": "µg/mL"}, {"measurement": "IC80", "setting": "[13]", "value": 0.024, "unit": "µg/mL"}, {"measurement": "IC50", "setting": "[14]", "value": "< 0.001", "unit": "µg/mL"}, {"measurement": "IC80", "setting": "[14]", "value": 0.005, "unit": "µg/mL"}, {"measurement": "IC50", "setting": "[15]", "value": 0.064, "unit": "µg/mL"}, {"measurement": "IC80", "setting": "[15]", "value": 0.304, "unit": "µg/mL"}, {"measurement": "IC50", "setting": "[16]", "value": 0.028, "unit": "µg/mL"}, {"measurement": "IC80", "setting": "[16]", "value": 0.082, "unit": "µg/mL"}, {"measurement": "IC50", "setting": "[17]", "value": 0.041, "unit": "µg/mL"}, {"measurement": "IC80", "setting": "[17]", "value": 0.14, "unit": "µg/mL"}, {"measurement": "IC50", "setting": "[18]", "value": "> 50", "unit": "µg/mL"}, {"measurement": "IC80", "setting": "[18]", "value": "> 50", "unit": "µg/mL"}, {"measurement": "IC50", "setting": "[19]", "value": "> 50", "unit": "µg/mL"}, {"measurement": "IC80", "setting": "[19]", "value": "> 50", "unit": "µg/mL"}, {"measurement": "IC50", "setting": "[20]", "value": 26.3, "unit": "µg/mL"}, {"measurement": "IC80", "setting": "[20]", "value": "> 50", "unit": "µg/mL"}, {"measurement": "IC50", "setting": "[21]", "value": 0.025, "unit": "µg/mL"}, {"measurement": "IC80", "setting": "[21]", "value": 0.126, "unit": "µg/mL"}, {"measurement": "IC50", "setting": "[22]", "value": "> 50", "unit": "µg/mL"}, {"measurement": "IC80", "setting": "[22]", "value": "> 50", "unit": "µg/mL"}, {"measurement": "IC50", "setting": "[23]", "value": "> 50", "unit": "µg/mL"}, {"measurement": "IC80", "setting": "[23]", "value": "> 50", "unit": "µg/mL"}, {"measurement": "IC50", "setting": "[24]", "value": 0.302, "unit": "µg/mL"}, {"measurement": "IC80", "setting": "[24]", "value": 2.31, "unit": "µg/mL"}, {"measurement": "IC50", "setting": "[25]", "value": 0.078, "unit": "µg/mL"}, {"measurement": "IC80", "setting": "[25]", "value": 0.291, "unit": "µg/mL"}, {"measurement": "IC50", "setting": "[26]", "value": 2.6, "unit": "µg/mL"}, {"measurement": "IC80", "setting": "[26]", "value": "> 50", "unit": "µg/mL"}, {"measurement": "IC50", "setting": "[27]", "value": "> 50", "unit": "µg/mL"}, {"measurement": "IC80", "setting": "[27]", "value": "> 50", "unit": "µg/mL"}, {"measurement": "IC50", "setting": "[28]", "value": 0.002, "unit": "µg/mL"}, {"measurement": "IC80", "setting": "[28]", "value": 0.007, "unit": "µg/mL"}, {"measurement": "IC50", "setting": "[29]", "value": 0.061, "unit": "µg/mL"}, {"measurement": "IC80", "setting": "[29]", "value": 0.347, "unit": "µg/mL"}, {"measurement": "IC50", "setting": "[30]", "value": 0.46, "unit": "µg/mL"}, {"measurement": "IC80", "setting": "[30]", "value": 2.04, "unit": "µg/mL"}, {"measurement": "IC50", "setting": "[31]", "value": "< 0.001", "unit": "µg/mL"}, {"measurement": "IC80", "setting": "[31]", "value": 0.002, "unit": "µg/mL"}, {"measurement": "IC50", "setting": "[32]", "value": 0.033, "unit": "µg/mL"}, {"measurement": "IC80", "setting": "[32]", "value": 0.127, "unit": "µg/mL"}]}, {"substance": "VRC01 (antibody)", "values": [{"measurement": "IC50 (Titer in TZM.bl cells)", "setting": "[33]", "value": 0.06, "unit": "µg/mL"}, {"measurement": "IC80 (Titer in TZM.bl cells)", "setting": "[33]", "value": 0.17, "unit": "µg/mL"}, {"measurement": "IC50 (Titer in TZM.bl cells)", "setting": "[34]", "value": 0.41, "unit": "µg/mL"}, {"measurement": "IC80 (Titer in TZM.bl cells)", "setting": "[34]", "value": 1.7, "unit": "µg/mL"}, {"measurement": "IC50 (Titer in TZM.bl cells)", "setting": "[35]", "value": 2.8, "unit": "µg/mL"}, {"measurement": "IC80 (Titer in TZM.bl cells)", "setting": "[35]", "value": 8.66, "unit": "µg/mL"}]}, {"substance": "VRC07 (antibody)", "values": [{"measurement": "IC50 (Titer in TZM.bl cells)", "setting": "[36]", "value": 0.45, "unit": "µg/mL"}, {"measurement": "IC80 (Titer in TZM.bl cells)", "setting": "[36]", "value": 1.56, "unit": "µg/mL"}]}]}
